Experimental data published in the supplement of paper PMC11908140.

B1: library; numbered along this chain (parent)
chain: MRKPRAAVGSGHRKQAASQEGRQKHAKNNSQAKPSACDGLARQPEEVVLQASVSSYHLFRDVAEVTAFRGSLLSWYDQEKRDLPWRRRAEDEMDLDRRAYAVWVSEVMLQQTQVATVINYYTGWMQKWPTLQDLASASLEEVNQLWAGLGYYSRGRRLQEGARKVVEELGGHMPRTAETLQQLLPGVGRYTAGAIASIAFGQATGVVDGNVARVLCRVRAIGADPSSTLVSQQLWGLAQQLVDPARPGDFNQAAMELGATVCTPQRPLCSQCPVESLCRARQRVEQEQLLASGSLSGSPDVEECAPNTGQCHLCLPPSEPWDQTLGVVNFPRKASRKPPREESSATCVLEQPGALGAQILLVQRPNSGLLAGLWEFPSVTWEPSEQLQRKALLQELQRWAGPLPATHLRHLGEVVHTFSHIKLTYQVYGLALEGQTPVTTVPPGARWLTQEEFHTAAVSTAMKKVFRVYQGQQPGTCMGSKRSQVSSPCSRKKPRMGQQVLDNFFRSHISTDAHSLNSAAQ

Variants of: B1
Assay: 8OG:A repair function score (normalized; synonymous = 0, nonsense = -1) (normalized log-likelihood score); higher = more repair activity (WT-like)
Details: with 8OG:A DNA repair reporter (GFP) in HEK-293 MUTYH KO cells
Method: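 Saturation mutagenesis (NNN codon scan) of the MUTYH cDNA (521-aa nuclear isoform NM_001048174.1 / NP_001041639), stably expressed under doxycycline induction in HEK-293 MUTYH knockout cells. Cells were co-transfected with an 8OG:A-bearing GFP repair reporter plus mCherry and sorted 72 h later into GFP+ and GFP− bins, three replicates per tile. The Rosace log2 enrichment (GFP+ vs GFP−) was converted per tile to a normalized function score with synonymous variants centered at 0 and nonsense variants (codons 1-471) at -1; low-abundance variants were removed.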

| Variant | 8OG:A repair function score |
| --- | --- |
| MRKPRAAVGSGHRKQAASQEGRQKHAKNNSQAKPSACDGLARQPEEVVLQASVSSYHLFRDVAEVTAFRGSLPSWYDQEKRDLPWRRRAEDEMDLDRRAYAVWVSEVMLQQTQVATVINYYTGWMQKWPTLQDLASASLEEVNQLWAGLGYYSRGRRLQEGARKVVEELGGHMPRTAETLQQLLPGVGRYTAGAIASIAFGQATGVVDGNVARVLCRVRAIGADPSSTLVSQQLWGLAQQLVDPARPGDFNQAAMELGATVCTPQRPLCSQCPVESLCRARQRVEQEQLLASGSLSGSPDVEECAPNTGQCHLCLPPSEPWDQTLGVVNFPRKASRKPPREESSATCVLEQPGALGAQILLVQRPNSGLLAGLWEFPSVTWEPSEQLQRKALLQELQRWAGPLPATHLRHLGEVVHTFSHIKLTYQVYGLALEGQTPVTTVPPGARWLTQEEFHTAAVSTAMKKVFRVYQGQQPGTCMGSKRSQVSSPCSRKKPRMGQQVLDNFFRSHISTDAHSLNSAAQ [L73P] | -1.57 |
| MRKPRAAVGSGHRKQAASQEGRQKHAKNNSQAKPSACDGLARQPEEVVLQASVSSYHLFRDVAEVTAFRGSLTSWYDQEKRDLPWRRRAEDEMDLDRRAYAVWVSEVMLQQTQVATVINYYTGWMQKWPTLQDLASASLEEVNQLWAGLGYYSRGRRLQEGARKVVEELGGHMPRTAETLQQLLPGVGRYTAGAIASIAFGQATGVVDGNVARVLCRVRAIGADPSSTLVSQQLWGLAQQLVDPARPGDFNQAAMELGATVCTPQRPLCSQCPVESLCRARQRVEQEQLLASGSLSGSPDVEECAPNTGQCHLCLPPSEPWDQTLGVVNFPRKASRKPPREESSATCVLEQPGALGAQILLVQRPNSGLLAGLWEFPSVTWEPSEQLQRKALLQELQRWAGPLPATHLRHLGEVVHTFSHIKLTYQVYGLALEGQTPVTTVPPGARWLTQEEFHTAAVSTAMKKVFRVYQGQQPGTCMGSKRSQVSSPCSRKKPRMGQQVLDNFFRSHISTDAHSLNSAAQ [L73T] | -0.136 |
| MRKPRAAVGSGHRKQAASQEGRQKHAKNNSQAKPSACDGLARQPEEVVLQASVSSYHLFRDVAEVTAFRGSLYSWYDQEKRDLPWRRRAEDEMDLDRRAYAVWVSEVMLQQTQVATVINYYTGWMQKWPTLQDLASASLEEVNQLWAGLGYYSRGRRLQEGARKVVEELGGHMPRTAETLQQLLPGVGRYTAGAIASIAFGQATGVVDGNVARVLCRVRAIGADPSSTLVSQQLWGLAQQLVDPARPGDFNQAAMELGATVCTPQRPLCSQCPVESLCRARQRVEQEQLLASGSLSGSPDVEECAPNTGQCHLCLPPSEPWDQTLGVVNFPRKASRKPPREESSATCVLEQPGALGAQILLVQRPNSGLLAGLWEFPSVTWEPSEQLQRKALLQELQRWAGPLPATHLRHLGEVVHTFSHIKLTYQVYGLALEGQTPVTTVPPGARWLTQEEFHTAAVSTAMKKVFRVYQGQQPGTCMGSKRSQVSSPCSRKKPRMGQQVLDNFFRSHISTDAHSLNSAAQ [L73Y] | -2.08 |
| MRKPRAAVGSGHRKQAASQEGRQKHAKNNSQAKPSACDGLARQPEEVVLQASVSSYHLFRDVAEVTAFRGSLSSWYDQEKRDLPWRRRAEDEMDLDRRAYAVWVSEVMLQQTQVATVINYYTGWMQKWPTLQDLASASLEEVNQLWAGLGYYSRGRRLQEGARKVVEELGGHMPRTAETLQQLLPGVGRYTAGAIASIAFGQATGVVDGNVARVLCRVRAIGADPSSTLVSQQLWGLAQQLVDPARPGDFNQAAMELGATVCTPQRPLCSQCPVESLCRARQRVEQEQLLASGSLSGSPDVEECAPNTGQCHLCLPPSEPWDQTLGVVNFPRKASRKPPREESSATCVLEQPGALGAQILLVQRPNSGLLAGLWEFPSVTWEPSEQLQRKALLQELQRWAGPLPATHLRHLGEVVHTFSHIKLTYQVYGLALEGQTPVTTVPPGARWLTQEEFHTAAVSTAMKKVFRVYQGQQPGTCMGSKRSQVSSPCSRKKPRMGQQVLDNFFRSHISTDAHSLNSAAQ [L73S] | -0.594 |
| MRKPRAAVGSGHRKQAASQEGRQKHAKNNSQAKPSACDGLARQPEEVVLQASVSSYHLFRDVAEVTAFRGSLWSWYDQEKRDLPWRRRAEDEMDLDRRAYAVWVSEVMLQQTQVATVINYYTGWMQKWPTLQDLASASLEEVNQLWAGLGYYSRGRRLQEGARKVVEELGGHMPRTAETLQQLLPGVGRYTAGAIASIAFGQATGVVDGNVARVLCRVRAIGADPSSTLVSQQLWGLAQQLVDPARPGDFNQAAMELGATVCTPQRPLCSQCPVESLCRARQRVEQEQLLASGSLSGSPDVEECAPNTGQCHLCLPPSEPWDQTLGVVNFPRKASRKPPREESSATCVLEQPGALGAQILLVQRPNSGLLAGLWEFPSVTWEPSEQLQRKALLQELQRWAGPLPATHLRHLGEVVHTFSHIKLTYQVYGLALEGQTPVTTVPPGARWLTQEEFHTAAVSTAMKKVFRVYQGQQPGTCMGSKRSQVSSPCSRKKPRMGQQVLDNFFRSHISTDAHSLNSAAQ [L73W] | -0.824 |
| MRKPRAAVGSGHRKQAASQEGRQKHAKNNSQAKPSACDGLARQPEEVVLQASVSSYHLFRDVAEVTAFRGSLQSWYDQEKRDLPWRRRAEDEMDLDRRAYAVWVSEVMLQQTQVATVINYYTGWMQKWPTLQDLASASLEEVNQLWAGLGYYSRGRRLQEGARKVVEELGGHMPRTAETLQQLLPGVGRYTAGAIASIAFGQATGVVDGNVARVLCRVRAIGADPSSTLVSQQLWGLAQQLVDPARPGDFNQAAMELGATVCTPQRPLCSQCPVESLCRARQRVEQEQLLASGSLSGSPDVEECAPNTGQCHLCLPPSEPWDQTLGVVNFPRKASRKPPREESSATCVLEQPGALGAQILLVQRPNSGLLAGLWEFPSVTWEPSEQLQRKALLQELQRWAGPLPATHLRHLGEVVHTFSHIKLTYQVYGLALEGQTPVTTVPPGARWLTQEEFHTAAVSTAMKKVFRVYQGQQPGTCMGSKRSQVSSPCSRKKPRMGQQVLDNFFRSHISTDAHSLNSAAQ [L73Q] | -0.236 |
| MRKPRAAVGSGHRKQAASQEGRQKHAKNNSQAKPSACDGLARQPEEVVLQASVSSYHLFRDVAEVTAFRGSLRSWYDQEKRDLPWRRRAEDEMDLDRRAYAVWVSEVMLQQTQVATVINYYTGWMQKWPTLQDLASASLEEVNQLWAGLGYYSRGRRLQEGARKVVEELGGHMPRTAETLQQLLPGVGRYTAGAIASIAFGQATGVVDGNVARVLCRVRAIGADPSSTLVSQQLWGLAQQLVDPARPGDFNQAAMELGATVCTPQRPLCSQCPVESLCRARQRVEQEQLLASGSLSGSPDVEECAPNTGQCHLCLPPSEPWDQTLGVVNFPRKASRKPPREESSATCVLEQPGALGAQILLVQRPNSGLLAGLWEFPSVTWEPSEQLQRKALLQELQRWAGPLPATHLRHLGEVVHTFSHIKLTYQVYGLALEGQTPVTTVPPGARWLTQEEFHTAAVSTAMKKVFRVYQGQQPGTCMGSKRSQVSSPCSRKKPRMGQQVLDNFFRSHISTDAHSLNSAAQ [L73R] | -0.593 |
| MRKPRAAVGSGHRKQAASQEGRQKHAKNNSQAKPSACDGLARQPEEVVLQASVSSYHLFRDVAEVTAFRGSLVSWYDQEKRDLPWRRRAEDEMDLDRRAYAVWVSEVMLQQTQVATVINYYTGWMQKWPTLQDLASASLEEVNQLWAGLGYYSRGRRLQEGARKVVEELGGHMPRTAETLQQLLPGVGRYTAGAIASIAFGQATGVVDGNVARVLCRVRAIGADPSSTLVSQQLWGLAQQLVDPARPGDFNQAAMELGATVCTPQRPLCSQCPVESLCRARQRVEQEQLLASGSLSGSPDVEECAPNTGQCHLCLPPSEPWDQTLGVVNFPRKASRKPPREESSATCVLEQPGALGAQILLVQRPNSGLLAGLWEFPSVTWEPSEQLQRKALLQELQRWAGPLPATHLRHLGEVVHTFSHIKLTYQVYGLALEGQTPVTTVPPGARWLTQEEFHTAAVSTAMKKVFRVYQGQQPGTCMGSKRSQVSSPCSRKKPRMGQQVLDNFFRSHISTDAHSLNSAAQ [L73V] | -0.108 |
| MRKPRAAVGSGHRKQAASQEGRQKHAKNNSQAKPSACDGLARQPEEVVLQASVSSYHLFRDVAEVTAFRGSLNSWYDQEKRDLPWRRRAEDEMDLDRRAYAVWVSEVMLQQTQVATVINYYTGWMQKWPTLQDLASASLEEVNQLWAGLGYYSRGRRLQEGARKVVEELGGHMPRTAETLQQLLPGVGRYTAGAIASIAFGQATGVVDGNVARVLCRVRAIGADPSSTLVSQQLWGLAQQLVDPARPGDFNQAAMELGATVCTPQRPLCSQCPVESLCRARQRVEQEQLLASGSLSGSPDVEECAPNTGQCHLCLPPSEPWDQTLGVVNFPRKASRKPPREESSATCVLEQPGALGAQILLVQRPNSGLLAGLWEFPSVTWEPSEQLQRKALLQELQRWAGPLPATHLRHLGEVVHTFSHIKLTYQVYGLALEGQTPVTTVPPGARWLTQEEFHTAAVSTAMKKVFRVYQGQQPGTCMGSKRSQVSSPCSRKKPRMGQQVLDNFFRSHISTDAHSLNSAAQ [L73N] | -0.718 |
| MRKPRAAVGSGHRKQAASQEGRQKHAKNNSQAKPSACDGLARQPEEVVLQASVSSYHLFRDVAEVTAFRGSLMSWYDQEKRDLPWRRRAEDEMDLDRRAYAVWVSEVMLQQTQVATVINYYTGWMQKWPTLQDLASASLEEVNQLWAGLGYYSRGRRLQEGARKVVEELGGHMPRTAETLQQLLPGVGRYTAGAIASIAFGQATGVVDGNVARVLCRVRAIGADPSSTLVSQQLWGLAQQLVDPARPGDFNQAAMELGATVCTPQRPLCSQCPVESLCRARQRVEQEQLLASGSLSGSPDVEECAPNTGQCHLCLPPSEPWDQTLGVVNFPRKASRKPPREESSATCVLEQPGALGAQILLVQRPNSGLLAGLWEFPSVTWEPSEQLQRKALLQELQRWAGPLPATHLRHLGEVVHTFSHIKLTYQVYGLALEGQTPVTTVPPGARWLTQEEFHTAAVSTAMKKVFRVYQGQQPGTCMGSKRSQVSSPCSRKKPRMGQQVLDNFFRSHISTDAHSLNSAAQ [L73M] | -0.0108 |
| MRKPRAAVGSGHRKQAASQEGRQKHAKNNSQAKPSACDGLARQPEEVVLQASVSSYHLFRDVAEVTAFRGSLLDWYDQEKRDLPWRRRAEDEMDLDRRAYAVWVSEVMLQQTQVATVINYYTGWMQKWPTLQDLASASLEEVNQLWAGLGYYSRGRRLQEGARKVVEELGGHMPRTAETLQQLLPGVGRYTAGAIASIAFGQATGVVDGNVARVLCRVRAIGADPSSTLVSQQLWGLAQQLVDPARPGDFNQAAMELGATVCTPQRPLCSQCPVESLCRARQRVEQEQLLASGSLSGSPDVEECAPNTGQCHLCLPPSEPWDQTLGVVNFPRKASRKPPREESSATCVLEQPGALGAQILLVQRPNSGLLAGLWEFPSVTWEPSEQLQRKALLQELQRWAGPLPATHLRHLGEVVHTFSHIKLTYQVYGLALEGQTPVTTVPPGARWLTQEEFHTAAVSTAMKKVFRVYQGQQPGTCMGSKRSQVSSPCSRKKPRMGQQVLDNFFRSHISTDAHSLNSAAQ [S74D] | -0.132 |
| MRKPRAAVGSGHRKQAASQEGRQKHAKNNSQAKPSACDGLARQPEEVVLQASVSSYHLFRDVAEVTAFRGSLLCWYDQEKRDLPWRRRAEDEMDLDRRAYAVWVSEVMLQQTQVATVINYYTGWMQKWPTLQDLASASLEEVNQLWAGLGYYSRGRRLQEGARKVVEELGGHMPRTAETLQQLLPGVGRYTAGAIASIAFGQATGVVDGNVARVLCRVRAIGADPSSTLVSQQLWGLAQQLVDPARPGDFNQAAMELGATVCTPQRPLCSQCPVESLCRARQRVEQEQLLASGSLSGSPDVEECAPNTGQCHLCLPPSEPWDQTLGVVNFPRKASRKPPREESSATCVLEQPGALGAQILLVQRPNSGLLAGLWEFPSVTWEPSEQLQRKALLQELQRWAGPLPATHLRHLGEVVHTFSHIKLTYQVYGLALEGQTPVTTVPPGARWLTQEEFHTAAVSTAMKKVFRVYQGQQPGTCMGSKRSQVSSPCSRKKPRMGQQVLDNFFRSHISTDAHSLNSAAQ [S74C] | -0.0037 |
